The numbers were not newly measured in patent publication US20240366723A1, “COMBINATION THERAPY FOR THE TREATMENT OF ENTERIC NEUROPATHIES” (TRANSFERT PLUS, LIMITED PARTNERSHIP, priority 2021, published 2024), which cites them from elsewhere.

For the data set the following is noted: literature reports, various models.

B1: BMP4: Bone morphogenetic protein 4 (protein, UniProt P12644 293-408, looked up)
Bone morphogenetic protein 4: SPKHHSQRARKKNKNCRRHSLYVDFSDVGWNDWIVAPPGYQAFYCHGDCPFPLADHLNSTNHAIVQTLVNSVNSSIPKACCVPTELSAISMLYLDEYDKVVLKNYQEMVVEGCGCR
On to B1, for which the Reported neurotrophic activity result is reported as “BMP signaling is necessary for neural crest cell”.

B2: MANF: Mesencephalic Astrocyte Derived Neurotrophic Factor (protein, UniProt P55145 25-182, looked up)
Mesencephalic …: LRPGDCEVCISYLGRFYQDLKDRDVTFSPATIENELIKFCREARGKENRLCYYIGATDDAATKIINEVSKPLAHHIPVEKICEKLKKKDSQICELKYDKQIDLSTVDLKKLRVKELKKILDDWGETCKGCAEKSDYIRKINELMPKYAPKAASARTDL
Consider B2, for which the Reported neurotrophic activity result is “MANF has neuroregenerative activity via differentiation”.
